Experimental data from article PMC11398566.
One block for each molecule: values may come before it.

What was measured:
[1] = molecular target: Gα13 (GNA13, full-length, from the cDNA resource center) (UniProt Q14344)
[2] = molecular target: Gα13 (GNA13, full-length, from the cDNA resource center) (UniProt Q14344); remark: listed apart in the source
[3] = molecular target: Gα13 (GNA13, full-length, from the cDNA resource center) (UniProt Q14344); remark: listed apart in the source
[4] = molecular target: Gα12 (GNA12, full-length, from the cDNA resource center) (UniProt Q03113)
[5] = molecular target: Gα12 (GNA12, full-length, from the cDNA resource center) (UniProt Q03113); remark: listed apart in the source
[6] = molecular target: Gα12 (GNA12, full-length, from the cDNA resource center) (UniProt Q03113); remark: listed apart in the source

Chain of UniProt Q14344 (Q14344 whole entry): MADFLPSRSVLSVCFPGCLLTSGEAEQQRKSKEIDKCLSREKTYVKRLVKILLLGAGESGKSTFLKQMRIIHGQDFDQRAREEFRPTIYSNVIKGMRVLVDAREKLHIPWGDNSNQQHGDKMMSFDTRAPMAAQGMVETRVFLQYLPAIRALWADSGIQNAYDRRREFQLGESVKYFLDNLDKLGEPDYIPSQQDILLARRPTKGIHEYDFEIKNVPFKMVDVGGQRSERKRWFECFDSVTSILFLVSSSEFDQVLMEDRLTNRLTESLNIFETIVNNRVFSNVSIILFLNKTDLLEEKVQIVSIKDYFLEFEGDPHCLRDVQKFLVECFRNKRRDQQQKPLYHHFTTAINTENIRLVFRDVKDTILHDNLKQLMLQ
Chain of UniProt Q03113 (Q03113 whole entry): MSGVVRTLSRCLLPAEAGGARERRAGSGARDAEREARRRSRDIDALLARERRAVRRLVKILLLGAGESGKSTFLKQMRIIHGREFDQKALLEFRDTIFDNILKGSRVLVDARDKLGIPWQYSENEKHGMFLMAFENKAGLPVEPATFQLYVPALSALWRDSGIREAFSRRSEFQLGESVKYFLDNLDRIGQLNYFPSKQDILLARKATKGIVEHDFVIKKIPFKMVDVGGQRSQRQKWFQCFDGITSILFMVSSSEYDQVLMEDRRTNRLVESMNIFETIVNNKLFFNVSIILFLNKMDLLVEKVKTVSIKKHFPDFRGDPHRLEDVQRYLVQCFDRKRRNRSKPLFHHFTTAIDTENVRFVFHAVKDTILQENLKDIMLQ

- ebBRET between PDZ-RhoGEF-RlucII and rGFP-CAAX, ΔGα12/13 cells with Gα13 and GPR56-T383A, time course after 20 nM 10C7, ΔBRET max [1]: 0.5 ΔBRET
- ebBRET between PDZ-RhoGEF-RlucII and rGFP-CAAX (recruitment to the plasma membrane), ΔGα12/13 cells with Gα13, constitutive, GPR56-WT DNA up to 250 ng; no increase without Gα13 [2]: 0.44 BRET ratio
- ebBRET between PDZ-RhoGEF-RlucII and rGFP-CAAX, ΔGα12/13 cells with Gα13 and GPR56-WT, time course after 20 nM 10C7, maximal ΔBRET after 24 min [3]: 0.7 ΔBRET
Molecule: PDZ-RhoGEF-RlucII (Gα12/13 binding domain of human PDZ-RhoGEF, residues 281–483) (from UniProt O15085 281-483) (domain or fragment)

- ebBRET between p115-RhoGEF-RlucII and rGFP-CAAX, ΔGα12/13 cells with Gα12 and GPR56-T383A, time course after 20 nM 10C7, ΔBRET max [4]: 0.2 ΔBRET
- ebBRET between p115-RhoGEF-RlucII and rGFP-CAAX (recruitment to the plasma membrane), ΔGα12/13 cells with Gα12, constitutive, GPR56-WT DNA up to 250 ng; no increase without Gα12 [5]: 0.44 BRET ratio
- ebBRET between p115-RhoGEF-RlucII and rGFP-CAAX, ΔGα12/13 cells with Gα12, constitutive, increasing GPR56-T383A DNA, maximum [5]: 0.228 BRET ratio
- ebBRET between p115-RhoGEF-RlucII and rGFP-CAAX, ΔGα12/13 cells with Gα12 and GPR56-WT, time course after 20 nM 10C7, maximum ΔBRET at 8 min [6]: 0.19 ΔBRET
B1: p115-RhoGEF-RlucII (Gα12/13 binding domain of human p115-RhoGEF, residues 1–244) (domain or fragment)
chain: MEDFARGAASPGPSRPGLVPVSIIGAEDEDFENELETNSEEQNSQFQSLEQVKRRPAHLMALLQHVALQFEPGPLLCCLHADMLGSLGPKEAKKAFLDFYHSFLEKTAVLRVPVPPNVAFELDRTRADLISEDVQRRFVQEVVQSQQVAVGRQLEDFRSKRLMGMTPWEQELAQLEAWVGRDRASYEARERHVAERLLMHLEEMQHTISTDEEKSAAVVNAIGLYMRHLGVRTKSGDKKSGRNF
